These results are taken from a protein production outcome set (Wang et al. 2014).

The nature of the series: label from the status in PepcDB records.

On to “MIEEEAIVTQVEEHAIWVEKFRKSACGSCAGGCSTSLVARLLGGKPLRLRIATEARVAPGDRVIIGVEEGALLAGSFRMYLFPLFSLIGGALLGKLLAAQGLSATAEAGSIAGGLVGLGLTLVLLKYCPSLQRQNLHPVFIRRISR”, for which the protein production result is on record as “failed”.
Take “MIEIKQVKTQDEVNYTFVEKLMHTAFPQEERRDTVQQREYSDNNPRFCNNIILENGNSIGMISYWTMGDFYYIEHFAIDPSLRNGGYGKRVLEMIKKQLKGPIVLEVEEPNDEMSTRRIHFYKRLEFTLHKKPYIQPPYRKGDSGLPMLLMTYGDIDMESDFEKVKKTLYKEVYGQEI”: the protein production entry is given as “not failed”.
Under “MIERILASLILCLMLGIPFGMMFSFTGDVVLNFTFFWPLFMSGLWITGGLYFWFHYERHWRWGDGVIPDEPTGRPLVSILIPCYNEGPNVRETIEAALAQRYTHIEVIAVNDGSNDDTGDELNRLAEQYDKLRVIHLAHNQGKALALQAACAAAKSDLLVCIDGDALLDPDAVAYLINPLINNPRVGAVTGNPRIRTRSTLIGRIQVGEFSSIIGLIKRTQRVHGKVFTVSGVIAAFRRSALAEVGYWSPDMITEDIDISWKLQLRHWTIFFEPRALCWILMPEKLSGLWKQRLRWAQGGAEVFLKNFRHLWSWRYRRMWPLFLEYSISILWAFTYAVSVLLYLLGFLIELPEEIRVETLFPPAFTGMMIGVVCLIQFAVSMLIERRYEKDIGKYLFWVIWYPMVYWTLSLFTSLVSFPKVMLRSRKKRARWESPDRGIERG” stands “failed”.
The entry for “MIESMIIAGGMLVALLYMTACSDKLDVQQMYEFDLATLPVQTTIVKGEEAEIRCQLVRSGEYQDTKYFIRYFQPTGKGELRMENGTVLLPNDLYLLPEETFRLYYRSFGTDQQKIDIYILDSFGQVVQKSFAFNNLEHHHHHH” is “failed”; for “MIEVAEIIAREIRRGKIVEIGVGFYLEVAKRLRESGIDILVVDINEKAINYARKQGIKGVVDDIFNPTLGIYKDAKAIYSIRPAPEMMKPLLDLARKLKIPLYIVPLTGDRTPNGMKLINYKGIPIYKWEP” it is “not failed”.
The entry for “MIEVLSVITSATVQDLGRWGYQRYGVPVSGVMDEVSARIANYLVGNPDNTPLIEFTAGGISIKFHTSAVFAVTGDATLYLNDTQLEPWESYWAKRGDVLTVRLSKGMYGYIAFSGGIECRKILGSCSTYLRAKFGGLLKPGDKLKLGYSLLTGKAGKRLPEELRPRFDKTVRVILGPNIEHFTPEGMRTFLTSEYTVTPESDRMGYRLEGPRIEHSEKGADIITEPIPRGAIQVPANGKPIIMLADAQTTGGYAKIATVIRVDIPMVVQTRPGEKLRFKAVSVNEAVQELRKRERI” is “not failed”.
“MIEVVCNDRLGKKVRVKCNTDDTIGDLKKLIAAQTGTRWNKIVLKKWYTIFKDHVSLGDYEIHDGMNLELYYQ”: the protein production entry is “not failed”.
Under “MIFASDLDQTLIYSRKSFRAHIEDNSIQLIETLDGKEISFITYKTITLLIKLQLHSYFIPVTTRTIEQFQRITLFQNEIIPEYAITSNGGNILHNGKQDVTWNKEIKKRISVECIERNDILKEFEQIAHKDWVISQKTADDLFHYCIIKRENIPYDELSSFTSWLDKQGWNHSLQGRKLYFVPKPINKWDAVQYIQEILQMDTIITAGDSLLDLCMLEKANYAFAPLHGELGATYNHLQPHIVKTDAIGIYAAEEIVSKSLQIIHSSSPTS” stands “failed”.
Under “MIFDTEPDAMTLAPDDKPQDRHFDWSGVPIDLGGMEPLEQIARLLCHALVAPAAALTITEGGRLRVLAARGISSSHVEQAMELCKQVPPAPNGVTELIEHATLAQIKLGDAAFPGLPARFIACVPVGAPQTGISGTLCVIDTRERRLASQEHQQLLMFANVAAAQLELQFGAGRREPHSGLLNTRQLQSDLDALAFGSHSVPTIAAFIEVYDTQAANEARQALGMQPLEELVRHASYVLTRALRGKATVYHVASMRFAFFLLNSAPDEMEDLLLDLRDMLHKPVDAAGVPMSLTFHAGVVRFAPQQPDTNDVMRKGLVALGDAINNHAIVCWYSASHDDAIQRSYRLALDAEQALDAGDFRLVFQPRIDLEDLSVTGFEALLRWNHASMGPIGPDEFIPLFEKTALMCTVTNWVIESALVQLAKWRAQGLDFSMSINLSSRDFGNINLAADVINRCKDLAIPTTCIELEITEGRWLRSNVEAVPRLRALRDAGVSVAIDDFGTGYSNFGYLTELPVNVLKLDRSLVTGIATKTGMQMRAEAVVRLANALGYRTVAEGIEHADEIALLRSWGCDEAQGYLLAKPMEAHLVADYVKQTAALRRLP” stands “failed”.
Under “MIFIESITNSVPWVNSLALTLNSPLLATTNEAENAPIVLTGVLLTLVVIYLASKIGGELSRLVDLPPVLGELVAGVLVGASALHLVVFPESGAVAGDSVIMTILQFINNLTPDAVTAIFQSQSEAVSVLAELGVIILLFEIGLESDLKELQKVGYQATIVACVGVAVPFTAGTVGLISIFHAPVIPAIFAGAALTATSIGITSKVLSELGQLKSREGQIIVGAAVIDDILGIIVLAVVASLAKTGEVDVLNVIYLIVSATVFLIGSILLGKYFNQSFVAIANKLQTRGNLIIPAFIFAFFMAFLGNAIHLEAILGAFAAGLVLDETDKRKELDEQVKPIADILVPIFFVTVGAKVDLSVLNPVVPGNREGLIIATFLIVVAIIGKIVTGWAVFGQPGINRLAVGVGMIPRGEVGLVFAGIGSASGALDKPLQAAIIIMVILTTFLAPPLLRFAFKQSEEIKELEKADLLG” stands “failed”; under “MIFLIFSFIVLLIFGLANVYIYKRLIKKITLFKYFYKIFSFIFIVLFLAQAVFLIFRRDEYLSDTWYEILAMFYAPTYCLFFMTLAWDFVKLILALMGKRDKTYNLILRLIFELSLIVLSVFLIYVSINNALKTPEVKSVDVEIPNLKKDLKIVMLTDIHLGKNLHENFLDKLITKVNLQSPDMVVIVGDLIDTNPKDLKNYISKLNDFNSTYGTFYALGNHEYYHGINEVLDLLRKHTNMKILVNQNLDLGFINIAGLGDLAGLDRGLYAPDLARIKVDLNTSKASILLTHQPKTALLYDLSDFDLVLSGHTHGGQIFPFMFLVKLQQGFVHGLYDLGEKTKLYVSSGAGFWGPSLRVFAPSEIVILNLKGKK”, “failed”; under “MIFMNMVNRERELQALKKRLSSNDLELIIIYGRRRIGKTFLIINAVNGYDFIYYLATEKNNLRKFKELTESKYEDIKYVKEDWEAIFHYLRDKIIIIDEFPYMIKEDESILSTFQKIVDETLKGSKTKLILLGSSISMMEDAISYKSPLYGRRTASIELKELKFKDLKGFNFSLIDAIHVYGFAGGVPFYLTKAKTPFLKWINAELKEVDSFIKDEIDFMLRYEFSEIGTYKEILHAISSGKNTLGEIKDFVRISGDVSSYLNKLEKIGIIGKEFPYKMKKGARYYIKDNFTLFWFTFIYPNLSLIEEGIYEIKEDEYNVYLGRIFEKIAREYVEDVYKVKVERLWFKDVEIDIYGDGIAGECKWSEGINGEKVLYELKRKVEDLGLDVKKYIIFAKSFSKTNEEAEFIDLKKLEQWYRTLEHHHHHH”, “not failed”.
“MIFMRTEDVRRDIPLLRDHVYLDAASTTPTPLPVVRAMTEYFKEYNANTGRGAYSLVLRATRKLQEAREKVAGFINASSDEIVFTKNTSEAINIVAGGLRFRKGDSVVVPNIEHHSNFLPWLRLRERGVDVRVVKADEGGVVDPGRIEDAVDETTRLVTVTHISNALGTVQDVKEIGRIAHDVGALYLVDAAQSIGHMEVDVRAIGADFAAFPGHKGTLGPVGTGFLYCSTDVQGELEPLMLGGGTVLDVSEDGYVLEDFPAKFEAGTLNIAGFIGLGASIDYMNRIGIRRIQKHGMKMTEELHATVSSIDGIECYGDPQNIYGILSFNINNMDPHDVAKILDETAGICVRSGHHCAIPAMKHLALHETGGTVRASIHYYNTSEEIQLLGETLEEIAGMG”: the protein production result is on record as “failed”.
The entry for “MIFVLLICPLFIFIVSVIGTRKTKTYYVMPIVTFASFLIIGVIAFTPKFFFWVGMYSIFSFIVSYMTLLFVKGYEVAENAK” is “failed”.
Under “MIGAILAGGYGKRLKPITDSIPKALVEIKDNYTIMDRQLFDFSIMGIEAVYILSGYLGNKIEERYGSRYRDMNIYYLREEKPLGTLYSLRNLIDEVKDDDIVLRNGDTVTDVNFLNFLKKAQDQKYYITMYVTRMKSPFGIVETFGDQIVQFREKPELNHYINAGLYYIKSDAFPYFFEKYIDRDLETTVFPRMAREGLIGSYTEEAMWIGIDSEKDLERIRADYRNREDYPWGYLKVLYDDDRSRLLEYAIKAGSDTEIDCGDGCILRIQSGLGTFGDSSDEKFRNGDVRSISGKVRVNAFENTRLELIISKKLEHHHHHH” stands “failed”.
